This is an account of results in the supplement of paper PMC12636428.

The series concerns Saccharomyces cerevisiae. As to the kind of experiment: transcriptional activation domain activity (GFP:mCherry ratio, weighted mean of sorted bins, harmonized to initial dataset scale) (arbitrary fluorescence ratio units); higher = stronger transcriptional activation. Particulars: beta-estradiol 1 µM; induction time 4 h. The method in brief: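 Barcoded protein tiles fused to an estradiol-inducible synthetic transcription factor were integrated at the yeast URA3 locus, in diploids carrying a GFP reporter. Cultures were diluted 1:5 into SC with 1 uM beta-estradiol, held 4 hours at 30 °C, sorted into 8 bins by GFP:mCherry ratio, and barcodes sequenced. Tiles under 50 reads were discarded. Activation activity is the read-weighted mean of bin median fluorescence, averaged across barcodes, then linearly mapped onto the initial dataset scale.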

In the case of “LFCLPDTAACGAMHAWRSWATSFLLFSFFAAICGQFFSLLFSYLLLFLCYWVI”, the “transcriptional activation domain activity” value came out at 42900. As to “VCVRVDWPWLSFPTALVLLTVVLFVTVLVIARRSQVSEGQPIWKSSSIVAFFH”, the “transcriptional activation domain activity” value was determined as 41100.

For the sequence “KPPCVWCRAVGTAASMLSNLLANGLLAFQCHMGWSIVYIAALLCIIYATTLSL”, the “transcriptional activation domain activity” value came out at 38300. As for “GGKRKGEQGHGAGQRGKGDGQGRGGRGRGRGEGGEEKGRRAERKEERGRRGRS”, the figure is 16300.

With “AFLLFLIYLTFFCWVCFATSATWVWTEILSDNQYTESFMPINDVLLAVLSGII”, the “transcriptional activation domain activity” value came to 47600. As for “VKVVRGTGKLIFLSRCIEPWLPKNNAYLLSLPWLDWKSLVLTVLYGIKGYCFL”, the figure is 62600; as for “IFHLPLECPFPLTNRRNACALIENFLDAVKYHRHLFPYWRRRAIKYFIWREWF”, 32300.

For the sequence “VFLGMLFWHCRNYLTSYHYLFSTLAIWVLSYIMRLFYLNWSNPWRMSWLIGDE”, the “transcriptional activation domain activity” value amounted to 58300. As for “MCACRLFNQICFINKPCRIVNLSISIVYINWGMLLCVMRSDVLSLYLLIMLPV”, the figure is 80000. As for “PAEVKLIWTRPVTLTKVIFVFVRYSIALCQVTAVYVLLIVRVYTLWDHRRAIL”, the figure is 70300; as for “TDSNATQKQLPVLTPSDLLSPFSVPSVSQVLFTNELRSMMLADNNIDSGAFPT”, 79900; as for “EAPVEAPIEVPVEAPVEAPVEAEKPAEEIETPAEAVVEKPAEETEKPAEAVVE”, 31900. With “MLRCLLSFLLYIYQFKYCNAQVSINVPIDGRQFKFIESFQFLNLPFNVITSTV”, the “transcriptional activation domain activity” value was determined as 67900. As for “GGEGRGGHPAACRGGCFARYPFTPSFLLYFLLLFFYRGVHVPISFFFLFLFLF”, the figure is 46500.

As for “GKKKKAKKAEVRKARAKASDRAKAKAKAAGPSRASKKAAAPARAKSGDGGKDK”, the “transcriptional activation domain activity” value is 21600.

For the sequence “EGEDALTLPLIISSQALLVVPPEKIVALPLQQMLSLVVRAITQAFVHGAFISR”, the “transcriptional activation domain activity” value is 67100. As for “HFAFESLAQTKHLERICMLSIRFVYVYAPHGEPIQLVVGFLICLLSNSPVSNG”, the figure is 55200. As for “FFLKVYLLNPLHMTRFADLLYQGAILNHVFQPYESHLQYLLQWMCDYNLYGCA”, the figure is 70700.

For the sequence “CMIFGRWACGPALLAVIYAILGVGFAFALVVTRSFASKSYGDRLQFRLRHFFF”, the “transcriptional activation domain activity” value came to 39600.

Regarding “MLSSKLNGRSQFICHLCHTGSLLTSVTLIFPFHHTYLHFLGWNLTLLTTVWFF”, the “transcriptional activation domain activity” value came out at 60600.

Turning to “MYYLYLSFCFLIVFFFFFFPLYCCCRLLFFSSSFVLFLSVLIILIPTFHAFFP”, the “transcriptional activation domain activity” value was 67800. The figure for “LSSYLLKNALDVFCKYLPHVSKPVETVFKVKRKYSWMVLFLLYCILTHTNYHC” is 26800; for “FLNRYLGLLGNIPVILEFFGNFTEHMFVFAFCFWLAFTQLVVIALLIIRTYAL” it is 65900; for “TSSPRRNSPPTRSTSSSPPSSPTSPYPSSSPPRPAPSPRPCARRGPKTPPSRP” it is 30300.

With “SKADTEDGEEAVDDTATEEKPEAKAEEVTEETTTEKEAEAAAESAAAEKLRRD”, the “transcriptional activation domain activity” value came out at 25700. As for “YIQDIQCLQFENGGVGRMELEAKHWMIYHGILLAKILRLLEDSPLKRFTIVNA”, the figure is 47800.

For “HKLVVQVLQSQLLILKILDLCVTFHWHSHRERYLGIGYPLNGSASSLSSNAPY”, the “transcriptional activation domain activity” value is 41400. As for “AVRAATSVLCKEMLRPGQSASLGLREAEEVECRMRALARLERVWVKTGASTNG”, the figure is 54900; as for “SFLSLFWLLCLGRFPIITKLFLGLYAVFYYVSRYKIGICFVVSIRWIWKSGNR”, 45600. Regarding “EMLSASKGRKKARMEEEDEDEWAGDGASKAKAKGKKAAKKPAKARAPKGKAAA”, the “transcriptional activation domain activity” value is 37400. The figure for “AMERLRAAEKTAKEKRLCLYANAPAANSSSKGTTAATSRGGAFEATVVRVWSG” is 61100; for “MGKRRRLLAKAQPKSGGSTSAKHHPQQGTGKAVAARGQKPQKQQGAPRNGSNG” it is 21900. As for “MAFKLSTAEKVYLALRLTLLTPFHILTSLIRSFILSLSRGLPPRLFWVCAVLR”, the figure is 49500; as for “ASASASALPSSGFGATRGMKVRASVKKICEGCSSVKRRGRVFIICSKNQKHKQ”, 36400. The figure for “VSRIRAAVEAQLNHPVNHVLIQHYRSGKDYISEHSDKTIDVVAGSKIVNISIG” is 37700; for “PDVEQMVLHFYLQLCYEFFDRCPTLFHASLGLINPSTSCCCGLLFLLFFVFLY” it is 72800. In the case of “DSKGFEARRANMGNDVELTGARAIVLVNIWNVQTSCGLSVPLVVQSNSGTECG”, the “transcriptional activation domain activity” value amounted to 59400. As for “EHSTTGDSWFLGLVLCYPLRSYGYFMLFFIWLRLFLVLAFQFLLYACNYLFIL”, the figure is 62200; as for “MSATEATAVPAPAEEVKVVETPAVDPVPEAPAAEESAPATEVKKEERPKSPSL”, 54600; as for “NRKTIGKQDPYCAARLGKEAKKTETDRRGGQTPRWDQEMRFTVHDSPDYYQLK”, 21000. As to “MWVLGRSWAVLSTFFLSLLRLFFCLLFLLGLDFWSGLLPFLCFFLLCSYCFSL”, the “transcriptional activation domain activity” value was found to be 56400. As for “FRPAPPPCSPAPPSPSSSPSSSSPPPPPPSRARRWSSAARARNAATTPCASSG”, the figure is 37900; as for “DSLSNSNDVLNNTPNSSTSMDWLDNVIYTNRFVSGDDGSNSKTKNLDSNMFSN”, 66900. Consider “MWVINRAFLEFYFIFCIVFTVHLVCFCFFWLIFLFCLLHASFLLCDFPFFFYY”, for which the “transcriptional activation domain activity” value came to 41100. The figure for “GAVAADVEDEDADDALEEPAKGKKRKSKVEEDESEAEKPAKKGRGRKSTETNG” is 42600.

As for “EGSSSGEEESSEEEEAAPRREDAAAARQKAADEMIEEQIKRDLAARAAGKKHW”, the “transcriptional activation domain activity” value worked out at 30100. Consider “MFLFVFSLVCIFYYCCYLLLLLLSSWLYSQQFVLFWSLTVHISCCPSFFLNES”, for which the “transcriptional activation domain activity” value is 37400. As for “ELGLGSWWVFIVLGHTSVLLELAPRYSFALYFLPVFLLTVTVVSFFFAFVLYL”, the “transcriptional activation domain activity” value amounted to 41100. As for “GTDDAEAREKTGAADPSADPASRKRRADDGEGDARKRIRTEGGSASAAAASSS”, the figure is 14100; as for “SSRYDPVKSVFLPLDPMPLPRDFFFSFALILFCPSPFYTSLLSLYLISPLLFP”, 60800; as for “LSHSFFSSCCCLLRTLGRFLLFIIFFLSFYFFIFTFFFFFSFQTYLLLYLLLI”, 31400.

For “KSKKTEAEAEEEEVTEEVKPEKKEKKEKKEKKEKKRKRDAEEDAAETKPAEKA”, the “transcriptional activation domain activity” value is 17600.

On to “KEKEVKAEVEEDGSEQEEGEGEEEEEGATRSSARKGKGRATAGGRKTRRGAAG”, for which the “transcriptional activation domain activity” value is 19400.

Turning to “MADALAENTAKLQLDEETGEMVSKGELKKRMAKRAKKAAAAKAKAEVPATTSA”, the “transcriptional activation domain activity” value is 20400. As for “NSSEEEDRNRRERKRKREKEREKKKESRRHRSRSRRSKEVEDDDEKDRKRHRR”, the figure is 14500.
